± gives the standard deviation of the averaged measurements.
Tested on: ATP
Assay: switch fluorescence ratio, 500 uM ATP over buffer (Cy3 cluster intensity, sum of 5 cycles each) (fold (ratio)); higher = stronger signal-on switching upon ATP binding; sequences stand for … in TCGTCGGCAGCGTCAGATGTGTATAAGAGACAGTTTTTTTTTTTTTTTTTTTTTTTTT…TC
Conditions: aptamer strand: ATP DNA aptamer (quencher-CACCTGGGGGAGTATTGCGGAGGAAGG + anchor), 100 nM annealed; ATP concentration: 500 uM
In short: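 Per cluster, summed Cy3 intensity from the target cycles was divided by that from the buffer cycles to give the fluorescence ratio, then averaged per switch-domain sequence. Clusters outside 100-1000 RFU were excluded. The Cy3-labelled switching-strand clusters, on a modified Illumina MiSeq flow-cell, were annealed to 100 nM quencher-labelled ATP aptamer and imaged in selection buffer, then after 15 min with 500 uM ATP at 22 °C, for five cycles with NaOH stripping and re-annealing between them.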
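Also: ATP exposure 15 min at 22 °C before imaging.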

Row | Sequence | switch fluorescence ratio
1 | TAAGATGACG | 1.13 ± 0.05
2 | TAAGATGAGA | 0.936 ± 0.0097
3 | TAAGATTCGG | 0.968 ± 0.015
4 | TAAGATTGTA | 0.993 ± 0.032
5 | TAAGCAGAGG | 1.17 ± 0.13
6 | TAAGCATATG | 1.011 ± 0.0037
7 | TAAGCCATCT | 1.04 ± 0.054
8 | TAAGCGATCA | 1.02 ± 0.018
9 | TAAGCGGAAT | 1.03 ± 0.013
10 | TAAGCTTTTT | 1 ± 0.033
11 | TAAGGATATG | 1.01 ± 0.0069
12 | TAAGGATTGT | 1.032 ± 0.0063
13 | TAAGGCCTGT | 0.9978 ± 0.0099
14 | TAAGGCTTAT | 0.988 ± 0.016
15 | TAAGGGAAAT | 1 ± 0.065
16 | TAAGGGCAAA | 1.02 ± 0.032
17 | TAAGGGCCTT | 0.992 ± 0.026
18 | TAAGGGCGGA | 1.01 ± 0.023
19 | TAAGGGGAAT | 1 ± 0.039
20 | TAAGGGGATA | 1.06 ± 0.11
21 | TAAGGGGATC | 0.987 ± 0.059
22 | TAAGGGGGG | 1.01 ± 0.029
23 | TAAGGGGGT | 1 ± 0.031
24 | TAAGGGGTAA | 0.947 ± 0.019
25 | TAAGGGGTTA | 0.992 ± 0.029
26 | TAAGGGTTGC | 1.03 ± 0.016

Row | Sequence | switch fluorescence ratio
27 | TAAGGGTTGG | 0.978 ± 0.03
28 | TAAGGTAATA | 1.03 ± 0.051
29 | TAAGGTAGG | 0.967 ± 0.029
30 | TAAGGTGGGT | 1.002 ± 0.0017
31 | TAAGTAAATA | 0.9762 ± 0.004
32 | TAAGTCCTGT | 0.998 ± 0.033
33 | TAAGTGCCAA | 1.01 ± 0.032
34 | TAAGTGGAAA | 0.992 ± 0.05
35 | TAAGTGGAAT | 0.999 ± 0.022
36 | TAAGTGGGGT | 0.979 ± 0.026
37 | TAAGTTAAGC | 1 ± 0.064
38 | TAAGTTAGTT | 0.979 ± 0.027
39 | TAAGTTATAG | 1.02 ± 0.042
40 | TAAGTTATTT | 0.986 ± 0.031
41 | TAAGTTTGTG | 0.996 ± 0.05
42 | TAATAATATT | 1 ± 0.018
43 | TAATAATTAA | 0.992 ± 0.024
44 | TAATACGAGT | 1.02 ± 0.014
45 | TAATACTGAA | 1.01 ± 0.029
46 | TAATACTTTT | 1.07 ± 0.098
47 | TAATAGAGGG | 1.03 ± 0.027
48 | TAATAGGAAG | 1.26 ± 0.43
49 | TAATAGGCTT | 1.01 ± 0.027
50 | TAATAGGGGC | 0.991 ± 0.05
51 | TAATAGGGTG | 1.08 ± 0.042
52 | TAATAGGGTT | 1.01 ± 0.027

Row | Sequence | switch fluorescence ratio
53 | TAATAGTAGT | 0.997 ± 0.022
54 | TAATAGTATA | 1 ± 0.013
55 | TAATAGTGGC | 1.06 ± 0.068
56 | TAATAGTGGG | 1.03 ± 0.041
57 | TAATATCCTA | 1 ± 0.048
58 | TAATATGGAG | 0.99 ± 0.034
59 | TAATATTTAG | 0.9863 ± 0.0031
60 | TAATATTTT | 0.966 ± 0.035
61 | TAATCACGGG | 1.09 ± 0.017
62 | TAATCAGTAG | 1.02 ± 0.015
63 | TAATCCACGG | 1.05 ± 0.064
64 | TAATCGAAGC | 1 ± 0.048
65 | TAATCGGGCG | 1.02 ± 0.022
66 | TAATCTTTTG | 0.986 ± 0.026
67 | TAATGAAAAA | 1 ± 0.039
68 | TAATGAGGAA | 1.004 ± 0.01
69 | TAATGAGGCT | 1.03 ± 0.014
70 | TAATGAGGTG | 1.04 ± 0.023
71 | TAATGAGTGC | 0.997 ± 0.04
72 | TAATGCCTGT | 0.979 ± 0.021
73 | TAATGCTAAT | 1.07 ± 0.073
74 | TAATGGTGTG | 1 ± 0.022
75 | TAATGGTTAG | 1.016 ± 0.0048
76 | TAATGTGGTT | 0.989 ± 0.033
77 | TAATGTTCTC | 1.02 ± 0.011
78 | TAATGTTGCA | 1.02 ± 0.029

Row | Sequence | switch fluorescence ratio
79 | TAATTAACAT | 0.9883 ± 0.0092
80 | TAATTAACTT | 1.09 ± 0.12
81 | TAATTAATAC | 1.08 ± 0.017
82 | TAATTAATAT | 1 ± 0.048
83 | TAATTACTCA | 1.045 ± 0.01
84 | TAATTAGAGT | 0.967 ± 0.046
85 | TAATTAGTTT | 0.982 ± 0.015
86 | TAATTATGCC | 1.05 ± 0.04
87 | TAATTATTTT | 1.01 ± 0.03
88 | TAATTCAGGT | 1 ± 0.011
89 | TAATTCGTAC | 1.07 ± 0.078
90 | TAATTCTTAG | 0.989 ± 0.02
91 | TAATTGAAAA | 1.14 ± 0.15
92 | TAATTGCGGG | 0.9554 ± 0.0095
93 | TAATTGTTGC | 0.969 ± 0.016
94 | TAATTTAGAT | 1.028 ± 0.0095
95 | TAATTTCAAG | 1.014 ± 0.0039
96 | TAATTTCTGG | 0.9896 ± 0.0085
97 | TAATTTTGTG | 0.975 ± 0.044
98 | TACAAAGGGA | 1.01 ± 0.027
99 | TACAACTCTC | 0.963 ± 0.077
100 | TACAAGGCTT | 0.993 ± 0.027
101 | TACAAGTTCT | 0.9814 ± 0.0042
102 | TACACGGTCA | 1.047 ± 0.0054
103 | TACACTTCTC | 1.08 ± 0.025
104 | TACAGAATCG | 1.014 ± 0.0014

Row | Sequence | switch fluorescence ratio
105 | TACAGCGCGT | 1.01 ± 0.021
106 | TACAGGCGGA | 1.02 ± 0.021
107 | TACAGGGAAC | 0.974 ± 0.014
108 | TACATAGTTC | 1.032 ± 0.0018
109 | TACATTAATT | 1.02 ± 0.047
110 | TACATTGGGC | 1 ± 0.013
111 | TACCAAGTCC | 1.05 ± 0.061
112 | TACCAGCGCT | 0.993 ± 0.058
113 | TACCAGGGAT | 1.1 ± 0.14
114 | TACCATTTAG | 0.997 ± 0.025
115 | TACCCCCGTT | 1.36 ± 0.041
116 | TACCGGCTCA | 0.999 ± 0.017
117 | TACCGGGGC | 1.06 ± 0.033
118 | TACCGGGGGG | 1.03 ± 0.029
119 | TACCGGGGTA | 1.01 ± 0.03
120 | TACCGGTCGG | 0.999 ± 0.019
121 | TACCGTACGA | 1.5 ± 0.019
122 | TACCGTTTGC | 1.19 ± 0.089
123 | TACCTAGGGG | 1.06 ± 0.039
124 | TACCTCTTAA | 1.05 ± 0.026
125 | TACCTTCTTG | 1.176 ± 0.0027
126 | TACGAAAAGA | 1.04 ± 0.052
127 | TACGAAGTCG | 1.0075 ± 0.00084
128 | TACGAATAAT | 1.1 ± 0.075
129 | TACGAGGGGA | 1.03 ± 0.026
130 | TACGAGGGTC | 0.969 ± 0.024

Row | Sequence | switch fluorescence ratio
131 | TACGAGGGTG | 1.06 ± 0.034
132 | TACGATACTC | 1.62 ± 0.026
133 | TACGATGAGG | 1.05 ± 0.018
134 | TACGATTGGA | 1.034 ± 0.0011
135 | TACGATTTGG | 0.993 ± 0.0027
136 | TACGCATTTG | 1.08 ± 0.011
137 | TACGCCATAT | 1.46 ± 0.18
138 | TACGCCGGTA | 0.961 ± 0.032
139 | TACGCGATTT | 1.09 ± 0.08
140 | TACGGAGTGG | 1.06 ± 0.026
141 | TACGGATACA | 1.18 ± 0.048
142 | TACGGCGGAA | 1.02 ± 0.047
143 | TACGGCTATC | 1.16 ± 0.047
144 | TACGGGACGC | 1.12 ± 0.047
145 | TACGGGACGG | 1.07 ± 0.023
146 | TACGGGATGT | 1.046 ± 0.0092
147 | TACGGGGACT | 1.11 ± 0.028
148 | TACGGGGGAG | 0.995 ± 0.02
149 | TACGGGGGGG | 1.07 ± 0.074
150 | TACGGGGTAA | 0.995 ± 0.022
151 | TACGGGGTGC | 1.07 ± 0.095
152 | TACGGGTGCT | 1.16 ± 0.16
153 | TACGGTCGAG | 1.1 ± 0.082

Reference: the supplement of paper PMC10126150
